# Reference: patent US20260209362A1 (VIB VZW, published 2026)
# Positions count from the first letter of the chain named.
# T1: biotinylated human recombinant IL-12Rβ2 (produced in-house) (human, UniProt Q99665 24-622, random biotinylated)
# T1 construct: Soluble recombinant protein used for panning, ELISA and BLI; also called hIL-12RB2; hIL12RB2
# T1 sequence: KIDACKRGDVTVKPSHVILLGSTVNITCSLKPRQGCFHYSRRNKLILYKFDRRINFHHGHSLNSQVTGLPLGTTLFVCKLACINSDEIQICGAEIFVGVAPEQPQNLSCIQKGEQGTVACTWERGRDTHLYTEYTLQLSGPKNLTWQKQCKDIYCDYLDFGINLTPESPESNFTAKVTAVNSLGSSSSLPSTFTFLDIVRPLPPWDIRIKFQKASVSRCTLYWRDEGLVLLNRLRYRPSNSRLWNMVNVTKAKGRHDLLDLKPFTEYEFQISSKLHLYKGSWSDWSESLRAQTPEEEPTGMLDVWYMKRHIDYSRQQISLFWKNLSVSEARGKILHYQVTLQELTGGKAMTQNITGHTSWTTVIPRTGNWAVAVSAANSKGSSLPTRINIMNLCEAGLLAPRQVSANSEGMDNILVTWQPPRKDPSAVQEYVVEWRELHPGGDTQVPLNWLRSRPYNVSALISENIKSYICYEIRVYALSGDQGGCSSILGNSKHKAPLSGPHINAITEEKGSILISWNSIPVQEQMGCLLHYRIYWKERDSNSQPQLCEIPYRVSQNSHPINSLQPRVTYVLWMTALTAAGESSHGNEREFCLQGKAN
# T2: biotinylated mouse recombinant IL-12Rβ2 (produced in-house) (mouse, UniProt P97378 24-637, random biotinylated)
# T2 construct: Soluble recombinant protein used for panning, ELISA and BLI; also called mIL-12RB2; mIL12RB2
# T2 sequence: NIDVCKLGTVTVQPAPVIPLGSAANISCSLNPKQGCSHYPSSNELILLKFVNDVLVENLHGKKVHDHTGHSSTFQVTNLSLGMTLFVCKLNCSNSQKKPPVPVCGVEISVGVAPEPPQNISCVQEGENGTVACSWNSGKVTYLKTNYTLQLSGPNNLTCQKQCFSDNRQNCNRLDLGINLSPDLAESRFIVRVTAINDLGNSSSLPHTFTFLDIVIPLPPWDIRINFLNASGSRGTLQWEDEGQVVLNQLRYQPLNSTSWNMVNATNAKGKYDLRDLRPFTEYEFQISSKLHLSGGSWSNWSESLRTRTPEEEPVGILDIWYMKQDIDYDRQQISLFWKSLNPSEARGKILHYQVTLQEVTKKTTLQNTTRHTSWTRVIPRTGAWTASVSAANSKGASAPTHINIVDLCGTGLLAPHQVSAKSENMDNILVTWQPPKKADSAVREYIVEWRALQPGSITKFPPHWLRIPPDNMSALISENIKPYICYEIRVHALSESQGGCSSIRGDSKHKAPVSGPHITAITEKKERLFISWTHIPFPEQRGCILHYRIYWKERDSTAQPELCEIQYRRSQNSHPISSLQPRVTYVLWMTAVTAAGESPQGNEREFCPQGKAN
# T3: human IL-12Rβ2 expressed on cells (human, UniProt Q99665 24-862)
# T3 construct: the cell lines are described by plasmid or cDNA number only; also called hIL-12RB2; HEK293T transiently transfected with human IL-12Rβ2
# T3 sequence: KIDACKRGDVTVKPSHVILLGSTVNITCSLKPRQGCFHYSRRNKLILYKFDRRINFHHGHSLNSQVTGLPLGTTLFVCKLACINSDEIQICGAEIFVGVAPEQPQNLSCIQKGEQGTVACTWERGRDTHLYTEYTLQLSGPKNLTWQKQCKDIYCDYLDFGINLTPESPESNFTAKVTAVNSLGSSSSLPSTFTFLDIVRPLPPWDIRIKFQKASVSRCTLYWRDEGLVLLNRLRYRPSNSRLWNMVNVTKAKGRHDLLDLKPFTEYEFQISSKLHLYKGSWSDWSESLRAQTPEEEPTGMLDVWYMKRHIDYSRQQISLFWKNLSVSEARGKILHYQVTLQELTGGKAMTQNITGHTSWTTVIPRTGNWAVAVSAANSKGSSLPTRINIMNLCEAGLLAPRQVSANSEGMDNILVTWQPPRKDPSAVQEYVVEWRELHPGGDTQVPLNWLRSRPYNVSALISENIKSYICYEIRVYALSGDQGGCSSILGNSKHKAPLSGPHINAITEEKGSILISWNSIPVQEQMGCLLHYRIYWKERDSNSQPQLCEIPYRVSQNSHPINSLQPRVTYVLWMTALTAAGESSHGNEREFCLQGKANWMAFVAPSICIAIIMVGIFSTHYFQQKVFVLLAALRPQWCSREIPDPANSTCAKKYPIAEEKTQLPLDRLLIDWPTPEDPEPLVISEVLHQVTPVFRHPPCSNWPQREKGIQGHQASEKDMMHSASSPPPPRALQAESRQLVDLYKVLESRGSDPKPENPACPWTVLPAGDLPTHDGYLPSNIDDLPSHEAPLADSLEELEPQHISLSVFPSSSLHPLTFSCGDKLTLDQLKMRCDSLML
# B1: anti-IL-12Rβ2 VHH clone 3CRHS54 (clone ID 20422) (VHH)
# VHH: QVQLQESGGGLVQPGGSLRLSCTASGSIVSIYNMDWYRQAPGNEREWVASITSSGDPYYDGSAKGRFTISRDNAKMTVYLQMNSLEPEDTAVYFCKVPTEKGNYWGQGTQVTVSS
# notes: Tested as periplasmic extract (P.E.) from the pMECS vector; not shown: C-terminal HA tag
# B2: anti-IL-12Rβ2 VHH clone 3CRHS9 (clone ID 20415) (VHH)
# VHH: B1 VHH with E86K, F94Y
# notes: Tested as periplasmic extract; also called 3CRMS9; not shown: C-terminal HA tag
# B3: anti-IL-12Rβ2 VHH clone 3CRHS163 (clone ID 20438) (VHH)
# VHH: QVQLQESGGGLVQPGGSLRLSCTASGFAFSTYWMYWIRQSPEKGFEWVSVVNTGGDITYYADSVKGRFTISRDNAKNTLYLQMNSLKPEDTALYYCARDRTTMSYTRTYYRGGQGTQVTVSS
# notes: Tested as periplasmic extract; also called 3CANS142; not shown: C-terminal HA tag
# B4: anti-IL-12Rβ2 VHH clone 3CAHS124 (clone ID 20400) (VHH)
# VHH: QVQLQESGGGLVQPGGSLRLSCAASGRTINAYIMGWFRQAPGKEREFVAAVSGSGGSTYYADSVKGRFTISRDNAKNTVNLQMDNLRSEDTDVYYCAATYESVYLQNPGQYDYWGQGTQVTVSS
# notes: Tested as periplasmic extract; not shown: C-terminal HA tag
# B5: anti-IL-12Rβ2 VHH clone 3CRHS128 (clone ID 20432) (VHH)
# VHH: QVQLQESGGGLVQPGGSLRLSCAASGFTFSTSGMHWFRQAPGKGLEWVSSIGATVDNSYYASSVKGRFTISRDNAKNTLYLLMNSLKSEDTAVYYCSKDPTGSSRGQGTQVTVSS
# notes: as for B4
# B6: anti-IL-12Rβ2 VHH clone 3CAHS102 (clone ID 20399) (VHH)
# VHH: QVQLQESGGGLVQPGGSLRLSCAASGSILRINLMGWYRQVPGKQRELVAEMSTGGSTTYVDSVEGRFTISRDNAKNTVYLQMNSLKPEDTAVYYCNAKAWQLGRLENDDWGQGTQVTVSS
# notes: as for B4
# B7: anti-IL-12Rβ2 VHH clone 2CRH82 (clone ID 20372) (VHH)
# VHH: QVQLQESGGGLVQAGGSLRLSCAASARTESMYAMAWFRQAPGKEREIVAGIIQSGGTTYISDYMKGRFSIDRGNAENTVYLQMDSLKPEDTAVYSCAAKVSSGTPSDIQISQSRWYDHWGQGTQVTVSS
# notes: as for B4
# B8: anti-IL-12Rβ2 VHH clone 3CRHS51 (clone ID 20421) (VHH)
# VHH: QVQLQESGGGLVQPGGSLRLSCAASGFTFSTYAMSWVRQAPGKGLEWVSAVNSGGLSTDYADSVEGRFTISRDDAKNMLFLQMNRLKPEDTARYYCAKYEDCSDYVCDRAGYWGQGTQVTVSS
# notes: Tested as periplasmic extract; also called 3CRHSS1; not shown: C-terminal HA tag
# B9: anti-IL-12Rβ2 VHH clone 3CRH25 (clone ID 20378) (VHH)
# VHH: QVQLQESGGGLVQAGDSLRLSCTASGHTFSRYTTIGWFRQAPGKDREFVAAIRWSGDITDYADAVKGRFTISRDNVKNTVYLQMNSLNPEDTAVYYCARGYSEYGVLSRNRGLYAYWGQGTQVTVSS
# notes: as for B4
# B10: anti-IL-12Rβ2 VHH clone 3CRHS106 (clone ID 20429) (VHH)
# VHH: QVQLQESGGGLVQPGGSLRLSCKASGFTFSTYAMSWVRQAPGKGLEWVSAVNSGGLSTDYADSVEGRFTISRDDAKNMLFLQMNSLKPEDTARYYCAKYEDCSDYMCHRDRAGYWGQGTQVTVSS
# notes: as for B4
# B11: anti-IL-12Rβ2 VHH clone 3CAHS171 (clone ID 20407) (VHH)
# VHH: QVQLQESGGGLVQPGGSLRLTCVASGFPFSTHAMSWVRQPPGKGREWISAINSGGDSTDYADSVMGRFTISRDNAKNTVYLQMNSLKSEDTAAYYCAKYEDCSDYDCSSRASWGQGTQVTVSS
# notes: as for B4
# B12: anti-IL-12Rβ2 VHH clone 3CRH5 (clone ID 20373) (VHH)
# VHH: QVQLQESGGGLVQAGGSLVLSCAASGSAALIFLMSWYRQAPGKQRELVAEVSRGGSTTYADSVEGRFTISRDNAKNIVDLQMNSLKPEDTAVYYCKADQNYGDSLRSSWGQGTQVTVSS
# notes: Tested as periplasmic extract; also called 3CRHS; not shown: C-terminal HA tag
# B13: anti-IL-12Rβ2 VHH clone 3CAHS142 (clone ID 20401) (VHH)
# VHH: QVQLQESGGGLVQAGESLTLSCIASGVIKDYAMGWFRQAPGKEREFVAAISWSGVSIYYADSVKGRFTISRDNAKNTVYLQMNSLEPEDTAVYYCAGTEGAYTVAGGSTFGYDMDYWGKGTQVTVSS
# notes: as for B4
# Molecular target: T1, biotinylated human recombinant IL-12Rβ2 …
# Assay: BLI (Octet Red), periplasmic extract on biotinylated human IL-12Rβ2 on streptavidin tips, 1:1 model
row,koff [s⁻¹],Binder
1,0.00272,B1
2,0.0034,B2
3,0.00302,B3
4,0.00324,B4
5,0.00274,B5
6,0.00267,B6
7,0.00274,B7
8,0.0043,B8
9,0.00205,B9
10,0.00355,B10
11,0.00431,B11
12,0.00337,B12
13,0.00324,B13

# Molecular target: T1, biotinylated human recombinant IL-12Rβ2 …
# Assay: ELISA, periplasmic extract on biotinylated human IL-12Rβ2; signal over streptavidin control well
row,hIL12RB2/control (ELISA) [ratio],Binder
1,7.85,B1
2,5.08,B2
3,3.58,B3
4,5.67,B4
5,3.65,B5
6,3.54,B6
7,16.1,B7
8,5.16,B9
9,10.2,B10
10,3.27,B11
11,8.64,B12
12,4.98,B13

# Molecular target: T2, biotinylated mouse recombinant IL-12Rβ2 …
# Assay: ELISA, periplasmic extract on biotinylated mouse IL-12Rβ2; signal over streptavidin control well
row,mIL12RB2/control (ELISA) [ratio],Binder
1,1.25,B1
2,1.09,B2
3,0.93,B3
4,1,B4
5,0.98,B5
6,1.02,B6
7,1.77,B7
8,1.04,B9
9,1.03,B10
10,0.96,B11
11,0.81,B12
12,1.07,B13

# Molecular target: T1, biotinylated human recombinant IL-12Rβ2 …
# Assay: BLI (Octet Red), periplasmic extract on biotinylated human IL-12Rβ2 on streptavidin tips
row,Response,Binder
1,0.203,B1
2,0.222,B2
3,0.339,B3
4,0.293,B4
5,0.294,B5
6,0.323,B6
7,0.426,B7
8,0.327,B8
9,0.523,B9
10,0.297,B10
11,0.195,B11
12,0.491,B12
13,0.352,B13

# Molecular target: T2, biotinylated mouse recombinant IL-12Rβ2 …
# Assay: ELISA, periplasmic extract on biotinylated mouse IL-12Rβ2
row,binding result,Binder
1,no binding,B1
2,no binding,B2
3,no binding,B3
4,no binding,B4
5,no binding,B5
6,no binding,B6
7,no binding,B7
8,no binding,B8
9,no binding,B9
10,no binding,B10
11,no binding,B11
12,no binding,B12
13,no binding,B13

# Molecular target: T3, human IL-12Rβ2 expressed on cells
# Assay: flow cytometry, periplasmic extract VHH-HA on HEK293T cells transiently expressing human IL-12Rβ2
% cells bound [%],dMFI,Binder
41.5,870,B1
42.1,941,B2
43.7,1050,B3
46.3,1100,B4
50.5,1380,B5
44.7,994,B6
40.1,744,B7
46,1140,B8
34.8,520,B9
43.3,1010,B10
47.5,1180,B11
39.5,735,B12
40.9,812,B13
